Values of other authors as cited in patent publication US20060234934A1, “Composition and Method for Selective Cytostasis” (priority 2005, published 2006).

Tested on: human embryonic palatal mesenchymal cells

B1: EGF: Epidermal Growth Factor (protein, UniProt P01133 23-1207, looked up)
Pro-epidermal growth factor: PQHWSCPEGTLAGNGNSTCVGPAPFLIFSHGNSIFRIDTEGTNYEQLVVDAGVSVIMDFHYNEKRIYWVDLERQLLQRVFLNGSRQERVCNIEKNVSGMAINWINEEVIWSNQQEGIITVTDMKGNNSHILLSALKYPANVAVDPVERFIFWSSEVAGSLYRADLDGVGVKALLETSEKITAVSLDVLDKRLFWIQYNREGSNSLICSCDYDGGSVHISKHPTQHNLFAMSLFGDRIFYSTWKMKTIWIANKHTGKDMVRINLHSSFVPLGELKVVHPLAQPKAEDDTWEPEQKLCKLRKGNCSSTVCGQDLQSHLCMCAEGYALSRDRKYCEDVNECAFWNHGCTLGCKNTPGSYYCTCPVGFVLLPDGKRCHQLVSCPRNVSECSHDCVLTSEGPLCFCPEGSVLERDGKTCSGCSSPDNGGCSQLCVPLSPVSWECDCFPGYDLQLDEKSCAASGPQPFLLFANSQDIRHMHFDGTDYGTLLSQQMGMVYALDHDPVENKIYFAHTALKWIERANMDGSQRERLIEEGVDVPEGLAVDWIGRRFYWTDRGKSLIGRSDLNGKRSKIITKENISQPRGIAVHPMAKRLFWTDTGINPRIESSSLQGLGRLVIASSDLIWPSGITIDFLTDKLYWCDAKQSVIEMANLDGSKRRRLTQNDVGHPFAVAVFEDYVWFSDWAMPSVMRVNKRTGKDRVRLQGSMLKPSSLVVVHPLAKPGADPCLYQNGGCEHICKKRLGTAWCSCREGFMKASDGKTCLALDGHQLLAGGEVDLKNQVTPLDILSKTRVSEDNITESQHMLVAEIMVSDQDDCAPVGCSMYARCISEGEDATCQCLKGFAGDGKLCSDIDECEMGVPVCPPASSKCINTEGGYVCRCSEGYQGDGIHCLDIDECQLGEHSCGENASCTNTEGGYTCMCAGRLSEPGLICPDSTPPPHLREDDHHYSVRNSDSECPLSHDGYCLHDGVCMYIEALDKYACNCVVGYIGERCQYRDLKWWELRHAGHGQQQKVIVVAVCVVVLVMLLLLSLWGAHYYRTQKLLSKNPKNPYEESSRDVRSRRPADTEDGMSSCPQPWFVVIKEHQDLKNGGQPVAGEDGQAADGSMQPTSWRQEPQLCGMGTEQGCWIPVSSDKGSCPQVMERSFHMPSYGTQTLEGGVEKPHSLLSANPLWQQRALDPPHQMELTQ
modifications: Pro-epidermal growth factor
**Q.** For B1, which “stimulation of incorporation of 3[H]-thymidine into newly synthesized DNA” value is on record?
**A.** a little more than twofold
